Numbered stars: 1 amine (or outer) side, 2 acyl side, 3 side chain; on linkers, the order of the positions; unused ones are H or OH. Bridge positions count the residues as written; N and C are the ends. Square brackets hold non-standard residues; d marks the D form. * marks the point of attachment. (R)‑NODAGA = O=C(O)CN1CCN(CC(=O)O)CCN([C@H](CCC(=O)*)C(=O)O)CC1; DOTA = O=C(O)CN1CCN(CC(=O)O)CCN(CC(=O)*)CCN(CC(=O)O)CC1; TATA = O=C(CC[*:1])N1CN(C(=O)CC[*:2])CN(C(=O)CC[*:3])C1; Cys(et) = S-ethylcysteine, CCSC[C@H](N[*:1])C(=O)[*:2]; Ser(et) = O-ethylserine, CCOC[C@H](N[*:1])C(=O)[*:2]; 1Nal = N[C@@H](Cc1cccc2ccccc12)C(=O)O; 2Nal = N[C@@H](Cc1ccc2ccccc2c1)C(=O)O; Hyp = O=C(O)[C@@H]1C[C@@H](O)CN1; hArg = N=C(N)NCCCC[C@H](N)C(=O)O; Met(O) = CS(=O)CC[C@H](N)C(=O)O; SeMet = C[Se]CC[C@H](N)C(=O)O; Nle = CCCC[C@H](N)C(=O)O
Columns and labels:
[1] = molecular target: T1, recombinant human nectin-4 (human, UniProt Q96NY8 32-349); test: FP
T1 chain: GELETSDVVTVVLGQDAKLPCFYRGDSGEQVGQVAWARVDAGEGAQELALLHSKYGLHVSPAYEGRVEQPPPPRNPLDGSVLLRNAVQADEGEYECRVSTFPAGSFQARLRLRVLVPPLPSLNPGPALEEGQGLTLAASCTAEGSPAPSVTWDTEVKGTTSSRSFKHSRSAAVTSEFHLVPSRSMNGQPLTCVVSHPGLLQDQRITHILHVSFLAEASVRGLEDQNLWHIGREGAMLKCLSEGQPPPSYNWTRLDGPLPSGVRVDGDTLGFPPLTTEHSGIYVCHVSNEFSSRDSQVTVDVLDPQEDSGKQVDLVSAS

[2] = molecular target: T1, recombinant human nectin-4; test: SPR
[3] = molecular target: T1, recombinant human nectin-4; test: SPR

Work on {(R)‑NODAGA}-CP[1Nal][dD]CMRDWSTP[Hyp]WC-NH2 (linker 1-5-15 via TATA) [10] yielded an IC50 [1] of 32.1 nM and a koff [2] of 0.00308 s⁻¹.

With {DOTA}-CP[2Nal][dD]CMRDWSTP[Hyp]WC-NH2 (linker 1-5-15 via TATA) [8c] the IC50 [1] was 3290 nM.

{(R)‑NODAGA}-CP[1Nal][dD]C[Met(O)][hArg]DWSTP[Hyp]WC-NH2 (linker 1-5-15 via TATA) [2] showed an IC50 [1] of 568 nM.

{DOTA}-CP[2Nal][dD]CMRDWSTP[Hyp]WC-OH (linker 1-5-15 via TATA) [8d (N188)] gave an IC50 [1] of 4220 nM.

Binder {(R)‑NODAGA}-CP[2Nal][dD]CM[hArg]DWSTP[Hyp]WC-NH2 (linker 1-5-15 via TATA) [9] has an IC50 [1] of 270 nM, a koff [2] of 0.0361 s⁻¹ and a Kd [3] of 2.85 nM.

With {(R)‑NODAGA}-CP[1Nal][dD]CM[hArg]DWSTP[Hyp]WC-NH2 (linker 1-5-15 via TATA; also: NODAGA complexed with natGa) [natGa-1e] the IC50 [1] was 203 nM.

{(R)‑NODAGA}-CP[1Nal][dD]C[Nle][hArg]DWSTP[Hyp]WC-NH2 (linker 1-5-15 via TATA; also: NODAGA complexed with natCu) [natCu-3a] gave an IC50 [1] of 45.4 nM.

In the case of H-CP[1Nal][dD]CM[hArg]DWSTP[Hyp]WC-NH2 (linker 1-5-15 via TATA) [1c], the IC50 [1] is reported as 51.8 nM.

{DOTA}-CP[1Nal][dD]CM[hArg]DWSTP[Hyp]WC-NH2 (linker 1-5-15 via TATA) [1f] showed an IC50 [1] of 177 nM.

Ac-CP[1Nal][dD]CM[hArg]DWSTP[Hyp]WC-NH2 (linker 1-5-15 via TATA) [1d (BCY8126)] gave an IC50 [1] of 34.7 nM.

{(R)‑NODAGA}-CP[1Nal][dD]CM[hArg]DWSTP[Hyp]WC-NH2 (linker 1-5-15 via TATA) [1e] showed an IC50 [1] of 35.6 nM.

Work on {(R)‑NODAGA}-CP[1Nal][dD]C[Nle][hArg]DWSTP[Hyp]WC-NH2 (linker 1-5-15 via TATA) [3a] yielded an IC50 [1] of 41.6 nM.

B1: 6 (peptide)
chain: {(R)‑NODAGA}-CP[1Nal][dD]C[Ser(et)][hArg]DWSTP[Hyp]WC-NH2
modifications: linker 1-5-15 via TATA
SMILES: CCOC[C@@H]1NC(=O)[C@@H]2CSCCC(=O)N3CN(CN(C3)C(=O)CCSC[C@H](NC(=O)CC[C@H](C(=O)O)N3CCN(CC(=O)O)CCN(CC(=O)O)CC3)C(=O)N3CCC[C@H]3C(=O)N[C@@H](Cc3cccc4ccccc34)C(=O)N[C@H](CC(=O)O)C(=O)N2)C(=O)CCSC[C@@H](C(N)=O)NC(=O)[C@H](Cc2c[nH]c3ccccc23)NC(=O)[C@@H]2C[C@@H](O)CN2C(=O)[C@@H]2CCCN2C(=O)[C@H]([C@@H](C)O)NC(=O)[C@H](CO)NC(=O)[C@H](Cc2c[nH]c3ccccc23)NC(=O)[C@H](CC(=O)O)NC(=O)[C@H](CCCCNC(=N)N)NC1=O
For B1, the IC50 [1] was 379 nM.

{(R)‑NODAGA}-CP[1Nal][dD]CM[hArg]DWSTP[Hyp]WC-NH2 (linker 1-5-15 via TATA; also: NODAGA complexed with natCu) [natCu-1e] showed an IC50 [1] of 23.7 nM.

{(R)‑NODAGA}-CP[2Nal][dD]CMRDWSTP[Hyp]WC-NH2 (linker 1-5-15 via TATA) [8a] showed an IC50 [1] of 479 nM.

B2: 7 (peptide)
chain: {(R)‑NODAGA}-CP[1Nal][dD]C[Cys(et)][hArg]DWSTP[Hyp]WC-NH2
modifications: linker 1-5-15 via TATA
SMILES: CCSC[C@@H]1NC(=O)[C@@H]2CSCCC(=O)N3CN(CN(C3)C(=O)CCSC[C@H](NC(=O)CC[C@H](C(=O)O)N3CCN(CC(=O)O)CCN(CC(=O)O)CC3)C(=O)N3CCC[C@H]3C(=O)N[C@@H](Cc3cccc4ccccc34)C(=O)N[C@H](CC(=O)O)C(=O)N2)C(=O)CCSC[C@@H](C(N)=O)NC(=O)[C@H](Cc2c[nH]c3ccccc23)NC(=O)[C@@H]2C[C@@H](O)CN2C(=O)[C@@H]2CCCN2C(=O)[C@H]([C@@H](C)O)NC(=O)[C@H](CO)NC(=O)[C@H](Cc2c[nH]c3ccccc23)NC(=O)[C@H](CC(=O)O)NC(=O)[C@H](CCCCNC(=N)N)NC1=O
For B2, the IC50 [1] was 151 nM.

Work on Ac-CP[1Nal][dD]C[Nle][hArg]DWSTP[Hyp]WC-NH2 (linker 1-5-15 via TATA) [3b] yielded an IC50 [1] of 31.5 nM.

{(R)‑NODAGA}-CP[1Nal][dD]C[SeMet][hArg]DWSTP[Hyp]WC-NH2 (linker 1-5-15 via TATA) [5] was tested, and the IC50 [1] was 48.7 nM.

— article PMC12557367 (2025)
